Reference: patent publication US20190359693A1

B1: MD2302 (bispecific antibody)
chain: EVQLVESGGGLVQPGGSLRLSCAVSISIFDIYAMDWYRQAPGKQRDLVATSFRDGSTNYADSVKGRFTISRDNAKNTLYLQMNSLKPEDTAVYLCHVSLYRDPLGVAGGMGVYWGKGALVTVSSGGGGSGGGGSEVQLVESGGGLVQPGGSLRLSCAATGFTLENKAIGWFRQTPGSEREGVLCISKSGSWTYYTDSMRGRFTISRDNAENTVYLQMDSLKPEDTAVYYCATTTAGGGLCWDGTTFSRLASSWGQGTQVTVSSGGGGSGGGGSEVQLVESGGGLVQAGGSLKLSCAASGRTYAMGWFRQAPGKEREFVAHINALGTRTYYSDSVKGRFTISRDNAKNTEYLEMNNLKPEDTAVYYCTAQGQWRAAPVAVAAEYEFWGQGTQVTVSS
B2: MD2310 (bispecific antibody)
chain: EVQLVESGGGLVQPGGSLRLSCAATGFTLENKAIGWFRQTPGSEREGVLCISKSGSWTYYTDSMRGRFTISRDNAENTVYLQMDSLKPEDTAVYYCATTTAGGGLCWDGTTFSRLASSWGQGTQVTVSSGGGGSGGGGSEVQLVESGGGLVQAGDSLRLSCAASGPTFGMSAMGWFRQAPGKEREFVAAISGLGNPNYSDDVKGRFTISRENGRNTVYLQMNSLKPEDTAVYYCAQRKVYHVQGGDRPQAYDYWGQGTQVTVSSGGGGSGGGGSEVQLVESGGGLVQAGDSLRISCAASGRTLSIYSMGWFRQAPGKEREFVATIGWNSGRTFYPDSLKGRFTISRDNARNTLYLQMNNLRPEDTAVYYCAAAKGPLRLSSQADYWGQGTQVTVSS
B3: MD2314 (bispecific antibody)
chain: EVQLVESGGGLVQAGDSLRLSCAASGPTFGMSAMGWFRQAPGKEREFVAAISGLGNPNYSDDVKGRFTISRENGRNTVYLQMNSLKPEDTAVYYCAQRKVYHVQGGDRPQAYDYWGQGTQVTVSSGGGGSGGGGSEVQLVESGGGLVQAGDSLRLSCAASGPTFGMSAMGWFRQAPGKEREFVAAISGLGNPNYSDDVKGRFTISRENGRNTVYLQMNSLKPEDTAVYYCAQRKVYHVQGGDRPQAYDYWGQGTQVTVSSGGGGSGGGGSEVQLVESGGGLVQPGGSLRLSCAATGFTLENKAIGWFRQTPGSEREGVLCISKSGSWTYYTDSMRGRFTISRDNAENTVYLQMDSLKPEDTAVYYCATTTAGGGLCWDGTTFSRLASSWGQGTQVTVSS
B4: MD2309 (bispecific antibody)
chain: EVQLVESGGGLVQAGDSLRISCAASGRTLSIYSMGWFRQAPGKEREFVATIGWNSGRTFYPDSLKGRFTISRDNARNTLYLQMNNLRPEDTAVYYCAAAKGPLRLSSQADYWGQGTQVTVSSGGGGSGGGGSEVQLVESGGGLVQAGDSLRLSCAASGPTFGMSAMGWFRQAPGKEREFVAAISGLGNPNYSDDVKGRFTISRENGRNTVYLQMNSLKPEDTAVYYCAQRKVYHVQGGDRPQAYDYWGQGTQVTVSSGGGGSGGGGSEVQLVESGGGLVQPGGSLRLSCAATGFTLENKAIGWFRQTPGSEREGVLCISKSGSWTYYTDSMRGRFTISRDNAENTVYLQMDSLKPEDTAVYYCATTTAGGGLCWDGTTFSRLASSWGQGTQVTVSS
B5: MD2305 (bispecific antibody)
chain: EVQLVESGGGLVQPGGSLRLSCAVSISIFDIYAMDWYRQAPGKQRDLVATSFRDGSTNYADSVKGRFTISRDNAKNTLYLQMNSLKPEDTAVYLCHVSLYRDPLGVAGGMGVYWGKGALVTVSSGGGGSGGGGSEVQLVESGGGLVQPGGSLRLSCAATGFTLENKAIGWFRQTPGSEREGVLCISKSGSWTYYTDSMRGRFTISRDNAENTVYLQMDSLKPEDTAVYYCATTTAGGGLCWDGTTFSRLASSWGQGTQVTVSSGGGGSGGGGSEVQLVESGGGLVQPGGSLRLSCAVSISIFDIYAMDWYRQAPGKQRDLVATSFRDGSTNYADSVKGRFTISRDNAKNTLYLQMNSLKPEDTAVYLCHVSLYRDPLGVAGGMGVYWGKGALVTVSS
B6: MD2301 (bispecific antibody)
chain: EVQLVESGGGLVQPGGSLRLSCAATGFTLENKAIGWFRQTPGSEREGVLCISKSGSWTYYTDSMRGRFTISRDNAENTVYLQMDSLKPEDTAVYYCATTTAGGGLCWDGTTFSRLASSWGQGTQVTVSSGGGGSGGGGSEVQLVESGGGLVQPGGSLRLSCAVSISIFDIYAMDWYRQAPGKQRDLVATSFRDGSTNYADSVKGRFTISRDNAKNTLYLQMNSLKPEDTAVYLCHVSLYRDPLGVAGGMGVYWGKGALVTVSSGGGGSGGGGSEVQLVESGGGLVQAGGSLKLSCAASGRTYAMGWFRQAPGKEREFVAHINALGTRTYYSDSVKGRFTISRDNAKNTEYLEMNNLKPEDTAVYYCTAQGQWRAAPVAVAAEYEFWGQGTQVTVSS
B7: MD2307 (bispecific antibody)
chain: EVQLVESGGGLVQPGGSLRLSCAATGFTLENKAIGWFRQTPGSEREGVLCISKSGSWTYYTDSMRGRFTISRDNAENTVYLQMDSLKPEDTAVYYCATTTAGGGLCWDGTTFSRLASSWGQGTQVTVSSGGGGSGGGGSEVQLVESGGGLVQAGDSLRISCAASGRTLSIYSMGWFRQAPGKEREFVATIGWNSGRTFYPDSLKGRFTISRDNARNTLYLQMNNLRPEDTAVYYCAAAKGPLRLSSQADYWGQGTQVTVSSGGGGSGGGGSEVQLVESGGGLVQAGDSLRLSCAASGPTFGMSAMGWFRQAPGKEREFVAAISGLGNPNYSDDVKGRFTISRENGRNTVYLQMNSLKPEDTAVYYCAQRKVYHVQGGDRPQAYDYWGQGTQVTVSS
B8: MD2311 (bispecific antibody)
chain: EVQLVESGGGLVQAGDSLRLSCAASGPTFGMSAMGWFRQAPGKEREFVAAISGLGNPNYSDDVKGRFTISRENGRNTVYLQMNSLKPEDTAVYYCAQRKVYHVQGGDRPQAYDYWGQGTQVTVSSGGGGSGGGGSEVQLVESGGGLVQPGGSLRLSCAATGFTLENKAIGWFRQTPGSEREGVLCISKSGSWTYYTDSMRGRFTISRDNAENTVYLQMDSLKPEDTAVYYCATTTAGGGLCWDGTTFSRLASSWGQGTQVTVSSGGGGSGGGGSEVQLVESGGGLVQAGDSLRISCAASGRTLSIYSMGWFRQAPGKEREFVATIGWNSGRTFYPDSLKGRFTISRDNARNTLYLQMNNLRPEDTAVYYCAAAKGPLRLSSQADYWGQGTQVTVSS
B9: SD1036 + SD1038 (protein)
VHH 1: EVQLVESGGGLVQAGGSLKLSCAASGRTYAMGWFRQAPGKEREFVAHINALGTRTYYSDSVKGRFTISRDNAKNTEYLEMNNLKPEDTAVYYCTAQGQWRAAPVAVAAEYEFWGQGTQVTVSS
VHH 2: EVQLVESGGGLVQPGGSLRLSCAVSISIFDIYAMDWYRQAPGKQRDLVATSFRDGSTNYADSVKGRFTISRDNAKNTLYLQMNSLKPEDTAVYLCHVSLYRDPLGVAGGMGVYWGKGALVTVSS
B10: MD2304 (bispecific antibody)
chain: EVQLVESGGGLVQPGGSLRLSCAATGFTLENKAIGWFRQTPGSEREGVLCISKSGSWTYYTDSMRGRFTISRDNAENTVYLQMDSLKPEDTAVYYCATTTAGGGLCWDGTTFSRLASSWGQGTQVTVSSGGGGSGGGGSEVQLVESGGGLVQPGGSLRLSCAVSISIFDIYAMDWYRQAPGKQRDLVATSFRDGSTNYADSVKGRFTISRDNAKNTLYLQMNSLKPEDTAVYLCHVSLYRDPLGVAGGMGVYWGKGALVTVSSGGGGSGGGGSEVQLVESGGGLVQPGGSLRLSCAVSISIFDIYAMDWYRQAPGKQRDLVATSFRDGSTNYADSVKGRFTISRDNAKNTLYLQMNSLKPEDTAVYLCHVSLYRDPLGVAGGMGVYWGKGALVTVSS
B11: MD1223 (bispecific antibody)
chain: EVQLVESGGGLVQPGGSLKLSCAASGFTFSTSWMYWLRQAPGKGLEWVSVINTDGGTYYADSVKDRFTISRDNAKDTLYLQMSSLKSEDTAVYYCAKDWGGPEPTRGQGTQVTVSSAAAGGGGSGGGGSGGGGSGGGGSGGGGSGGGGSGGGGSEVQLVESGGGLVQPGGSLRLSCAATGFTLENKAIGWFRQTPGSEREGVLCISKSGSWTYYTDSMRGRFTISRDNAENTVYLQMDSLKPEDTAVYYCATTTAGGGLCWDGTTFSRLASSWGQGTQVTVSS
B12: MD2308 (bispecific antibody)
chain: EVQLVESGGGLVQAGDSLRISCAASGRTLSIYSMGWFRQAPGKEREFVATIGWNSGRTFYPDSLKGRFTISRDNARNTLYLQMNNLRPEDTAVYYCAAAKGPLRLSSQADYWGQGTQVTVSSGGGGSGGGGSEVQLVESGGGLVQPGGSLRLSCAATGFTLENKAIGWFRQTPGSEREGVLCISKSGSWTYYTDSMRGRFTISRDNAENTVYLQMDSLKPEDTAVYYCATTTAGGGLCWDGTTFSRLASSWGQGTQVTVSSGGGGSGGGGSEVQLVESGGGLVQAGDSLRLSCAASGPTFGMSAMGWFRQAPGKEREFVAAISGLGNPNYSDDVKGRFTISRENGRNTVYLQMNSLKPEDTAVYYCAQRKVYHVQGGDRPQAYDYWGQGTQVTVSS

What was measured:
Experiment in all cases: cell-based or functional assay
[1] = target: hemagglutinin (HA) of influenza virus B/Florida/04/06 (Yamagata) (influenza B virus)
[2] = target: hemagglutinin (HA) of influenza virus H3N2 A/Wisconsin/67/05 (influenza A virus)
[3] = target: hemagglutinin (HA) of influenza virus H1N1 A/New Caledonia/20/99 (influenza A virus)
[4] = target: hemagglutinin (HA) of influenza virus H5N1 A/Vietnam/1194/04 (influenza A virus)
[5] = target: hemagglutinin (HA) of influenza virus H7N3 A/NIBRG/60 (A/mallard/Netherlands/12/00) (influenza A virus)
[6] = target: hemagglutinin (HA) of influenza virus H3N2 A/Brisbane/10/07 (influenza A virus)
[7] = target: hemagglutinin (HA) of influenza virus H1N1 A/Puerto Rico/8/34-MA (influenza A virus)
[8] = target: hemagglutinin (HA) of influenza virus B/Lee/40 (Old) (influenza B virus) (UniProt P03460)
hemagglutinin (HA) of influenza virus B/Lee/40 (Old) (influenza B virus), sequence (P03460 16-584 limits assumed): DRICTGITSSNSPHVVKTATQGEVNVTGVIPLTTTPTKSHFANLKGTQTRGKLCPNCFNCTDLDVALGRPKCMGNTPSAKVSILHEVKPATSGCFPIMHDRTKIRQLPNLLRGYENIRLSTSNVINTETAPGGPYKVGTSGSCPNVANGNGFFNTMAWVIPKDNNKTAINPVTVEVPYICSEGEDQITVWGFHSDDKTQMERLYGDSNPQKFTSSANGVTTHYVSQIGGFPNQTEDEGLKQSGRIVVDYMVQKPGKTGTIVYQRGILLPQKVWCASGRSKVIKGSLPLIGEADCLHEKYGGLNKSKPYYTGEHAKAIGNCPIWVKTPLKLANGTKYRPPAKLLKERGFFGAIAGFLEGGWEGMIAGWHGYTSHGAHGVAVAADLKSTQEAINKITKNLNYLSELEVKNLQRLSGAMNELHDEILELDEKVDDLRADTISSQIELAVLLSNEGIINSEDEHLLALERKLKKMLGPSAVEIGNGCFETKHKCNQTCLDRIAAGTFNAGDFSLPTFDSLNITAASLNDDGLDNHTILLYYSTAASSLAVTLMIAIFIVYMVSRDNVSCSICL

| Binder | average neutralization titer [2] [nM] | average neutralization titer [3] [nM] | average neutralization titer [4] [nM] | average neutralization titer [5] [nM] | average neutralization titer [6] [nM] | further results |
| --- | --- | --- | --- | --- | --- | --- |
| B1 | 34.7 | 14.7 |  |  |  | average neutralization titer [1]: 412 nM |
| B2 |  |  | 21.6 | 30.4 | 25.5 |  |
| B3 |  |  | 6.5 | > 1000 | > 1000 |  |
| B4 |  |  | 12.8 | 9.1 | 12.8 |  |
| B5 | 21.7 | 4.3 |  |  |  |  |
| B6 | 34.7 | 14.7 |  |  |  | average neutralization titer [1]: 412 nM |
| B7 |  |  | 21.6 | 18.1 | 30.4 |  |
| B8 |  |  | 12.8 | 15.3 | 21.6 |  |
| B9 |  |  |  |  |  | neutralization titer [2]: < 1000 nM; neutralization titer [4]: 19.3 nM; neutralization titer [7]: 6.8 nM |
| B10 | 18.2 | 20.6 |  |  |  |  |
| B11 |  |  |  |  |  | neutralization titer [8]: 18 nM; neutralization titer [1]: 2.3 nM |
| B12 |  |  | 21.6 | 12.8 | 15.3 |  |
